These results are taken from patent publication US20070134249A1 (GENITOPE, published 2007).

Holding throughout (experiment): ELISA
Common to all, as to parameters: key to grade: 0 = <0.5 OD, 1 = 0.5-1.0 OD, 4 = 1-4 OD

For experiment [1], the target named is T1, PIN574 fully human Id protein (HV4-39 / LV1-40) (human).
T1 construct: Recombinant patient-derived idiotype immunoglobulin used as antigen, fully human form; also called Immunogen (for 20H5); not shown: human immunoglobulin heavy chain constant region, isotype G3 (HCG3); human immunoglobulin lambda light chain constant region (LC)
T1 sequence (VH, as listed by the source, chain 1 of 2): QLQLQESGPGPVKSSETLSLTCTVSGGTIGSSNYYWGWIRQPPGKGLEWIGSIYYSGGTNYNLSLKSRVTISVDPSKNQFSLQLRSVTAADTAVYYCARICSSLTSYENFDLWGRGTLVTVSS
T1 sequence (VL, as listed by the source, chain 2 of 2): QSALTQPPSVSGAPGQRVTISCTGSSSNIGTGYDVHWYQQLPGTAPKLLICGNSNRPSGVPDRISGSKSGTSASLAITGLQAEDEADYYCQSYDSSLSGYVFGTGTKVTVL
The text has this: (§1) Before specificity screening, all of the clonal immunogen-positive hybridoma supernatants were re-screened on the immunogen, a non-family member Id protein, and KLH, if animals were immunized with Id protein that has been conjugated KLH. As described above, this screen identifies HC-specific clones but not mAbs against the light chain constant region. Clones identified positive to the immunogen and KLH were […]. Those found positive to the immunogen but not to the non-family member Id protein or KLH were tittered on the immunogen. In addition to normalizing for different binding affinities and concentrations, each hybridoma supernatant was titered on the fully human form of the Id protein used as the immunogen(s) for the V regions. The titer or dilution resulting in an ELISA absorbance of 2.5 to 3 OD after 30 min. incubation time was then used. Hybridoma specificity was determined by screening against available Id proteins expressing the same HV and KV or LV as well as different HV, KV and LV. The final ELISA results are expressed as follows: 0 (<0.5 OD), 1 (0.5-1.0 OD), or 4 (1-4 OD). Positive hybridoma supernatants are categorized according to specificity: anti-Id, anti-constant region (HC, KC or LC), or V region (HV, KV, LV family or family member).
(§2) In general, the fully human Id protein or proteins containing the immunogen V regions were coated onto 96-well ELISA plates at 2.5-5 ug/mL in carbonate buffer pH 9.6 and incubated at 4° C. for up to 14 days. On the day of the ELISA, plates were brought to RT and blocked with Tris-Tween-20, pH 7.6 for 15-60 min. at RT. Following a NaCl and Triton X-100 wash, diluted hybridoma cell culture supernatants were incubated overnight at 4° C. Hybridoma supernatant dilutions ranged from 1:2 to 1:25 and were prepared in PBS with 5% BSA. Plates were washed and incubated with HRP-conjugated goat anti-mouse IgG-specific detecting antibody. A chromogenic substrate (TMB) was used to measure the amount of mouse antibody bound to each well. The reaction was stopped at or before 30 minutes with IN H2SO4 and plates were read immediately. Absorbency readings at 450 nm ranging between 0-4 OD and using Molecular Devices plate reader and SOFTMAX PRO software.

For another experiment, the target named is T2, 534.
T2 construct: H3-11 L1-47; also called PIN534
From the text: as §1, §2

Another experiment concerns the target T3, 551.
T3 construct: H3-23 L1-40; also called PIN551
From the text: as §1, §2

A further experiment deals with T4, 747.
T4 construct: H3-23 L2-14; also called PIN747
From the text: as §1, §2

The target of a further experiment is T5, 1060.
T5 construct: H4-39 L2-23; also called PIN1060
From the text: as §1, §2

The next experiment addresses T6, 231.
T6 construct: H3-48 L2-14; also called PIN231
From the text: as §1, §2

The next experiment deals with T7, 1167.
T7 construct: H3-23 L2-14; also called PIN1167
From the text: as §1, §2

The target of the next experiment is T8, 116.
T8 construct: fully human Id protein; also called PIN116
T8 sequence (VH, as listed by the source, chain 1 of 2): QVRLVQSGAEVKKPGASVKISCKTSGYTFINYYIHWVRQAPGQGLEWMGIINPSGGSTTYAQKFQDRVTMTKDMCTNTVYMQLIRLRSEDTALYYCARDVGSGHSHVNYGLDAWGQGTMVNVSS
T8 sequence (V domain, as listed by the source, chain 2 of 2): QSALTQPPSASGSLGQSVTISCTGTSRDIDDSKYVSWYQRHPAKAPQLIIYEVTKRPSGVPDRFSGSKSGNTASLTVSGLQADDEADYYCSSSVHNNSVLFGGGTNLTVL
From the text: as §1, §2

The target of another experiment is T9, 746.
T9 construct: H4-39 L2-8; also called PIN746
From the text: as §1, §2

Another experiment has as its target T10, 305.
T10 construct: H3-48 L1-40; also called PIN305
From the text: as §1, §2

A further experiment addresses T11, 1131.
T11 construct: H4-31 L3-25; also called PIN1131
From the text: as §1, §2

Another experiment deals with T12, 164.
T12 construct: H4-39 L2-14; also called PIN164
From the text: as §1, §2

Another experiment deals with T13, 1089.
T13 construct: H3-73 L2-23; also called PIN1089
From the text: as §1, §2

The target of another experiment is T14, 196.
T14 construct: H4-31 L2-23; also called PIN196
From the text: as §1, §2

The next experiment has as its target T15, 625.
T15 construct: H4-61 L2-8; also called PIN625
From the text: as §1, §2

The target of a further experiment is T16, 645.
T16 construct: H3-74 L2-14; also called PIN645
From the text: as §1, §2

In the next experiment the target is T17, 710.
T17 construct: H1-8 L2-8; also called PIN710
From the text: as §1, §2

In another experiment the target is T18, 1067.
T18 construct: H1-8 L2-23; also called PIN1067
From the text: as §1, §2

B1: mAb clone 4H11 (antibody, V domains shown)
VH: EVKLVESGGGLVKPGGSLKLSCAASGFAFSNYDMSWVRQTPEKRLEWVATIRSDDSYTYYPDSVKGRFTISRDNARNTLYLQMSSLRSEDTAFYYCARREGNYAMDYWGQGTSVTVSS
VL: DIQMTQSPASLSVSVGETVTITCRASENIYSYLAWYQQKKGKSPQLLVYAATNLGDGVPTRFSGSGSGTQYSLKINSLQSEDFGSYYCQHFWGNPLTFGAGTKLELKR
notes: Mouse hybridoma mAb
B1: the grade in [1] stood at 4; with 534 it was 4; with 551 it was 4; in the experiment with 747, 1; in the experiment with 1060 it was 4; with 231 it was 4. For the same molecule, the grade was found to be 4 in the experiment with 1167; 1 with 746; 4 in the experiment with 305; 4 with 1131; 4 with 164; 4 with 1089. Further, the grade came out at 4 in the experiment with 196; 4 in the experiment with 625; 1 with 645; 4 in the experiment with 710; 4 in the experiment with 1067. The binding result with 116 was “no binding”.
